Assay results taken from paper PMC10866537 (2024).

Target: T1, mouse 4-1BB–Fc protein (mouse, UniProt P20334 24-187)
T1 chain: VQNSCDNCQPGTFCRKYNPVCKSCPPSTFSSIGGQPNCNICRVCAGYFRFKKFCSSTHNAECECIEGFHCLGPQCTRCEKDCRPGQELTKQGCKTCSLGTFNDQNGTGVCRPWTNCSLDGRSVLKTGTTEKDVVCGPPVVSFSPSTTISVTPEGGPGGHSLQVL
Experiment: SPR

koff: 0.011 s⁻¹
B1: mouse siglec-4–HIS protein (domain or fragment)
chain: GHWGAWMPSTISAFEGTCVSIPCRFDFPDELRPAVVHGVWYFNSPYPKNYPPVVFKSRTQVVHESFQGRSRLLGDLGLRNCTLLLSTLSPELGGKYYFRGDLGGYNQYTFSEHSVLDIVNTPNIVVPPEVVAGTEVEVSCMVPDNCPELRPELSWLGHEGLGEPTVLGRLREDEGTWVQVSLLHFVPTREANGHRLGCQAAFPNTTLQFEGYASLDVKYPPVIVEMNSSVEAIEGSHVSLLCGADSNPPPLLTWMRDGMVLREAVAKSLYLDLEEVTPGEDGVYACLAENAYGQDNRTVELSVMYAPWKPTVNGTVVAVEGETVSILCSTQSNPDPILTIFKEKQILATVIYESQLQLELPAVTPEDDGEYWCVAENQYGQRATAFNLSVEFAPIILLESHCAAARDTVQCLCVVKSNPEPSVAFELPSRNVTVNETEREFVYSERSGLLLTSILTIRGQAQAPPRVICTSRNLYGTQSLELPFQGAHRLMWAKIGP
